Assay [1] concerns the target T1, Bcl-xL (Homo sapiens, UniProt Q07817, DEL46-85). Nature of the assay: Cell surface display equilibrium binding assay with flow cytometry. The note with it: cells displaying Bak–eCPX fusions, biotinylated Bcl-xL and SAPE.
Assay [2] deals with T1, Bcl-xL. The note with it: L78A amino acid change relative to Bak(72–87); cited from earlier work.

Ends that are not written are not given here. eCPX = enhanced circularly permuted OmpX display protein

As for “Bak(72–85): Bak(72–87) with deletion of residues N86 and R87, eCPX fusion (GQVGRQLAIIGDDI-eCPX)”, the “Binding to Bcl-xL in words (fluorescence of cell population)” value (“Binding to Bcl-xL in words” for short) with Bcl-xL [1] is given as “reduction in binding to nearly background levels”.

“Bak(72–117): eCPX fusion protein comprising helices α3 and α4 of Bak (GQVGRQLAIIGDDINRRYDSEFQTMLQHLQPTAENAYEYFTKIATS-eCPX)”: the “Binding to Bcl-xL in words” value with Bcl-xL [1] is on record as “fluorescence only slightly above background levels”. Regarding “Bak(74–87) GG: eCPX–Bak(74–87) in which the GQ sequence preceding the Bak peptide was changed to GG (GGVGRQLAIIGDDINR-eCPX)”, the “Binding to Bcl-xL in words” value with Bcl-xL [1] was “bound Bcl-xL equally as well as Bak(72–87)”. As to “L78A: Bak(72–87) with the critical leucine in position 78 changed to alanine, displayed on eCPX (GQVGRQAAIIGDDINR-eCPX) [Construct L78A]”, the “Decrease in binding affinity of Bak(72–87) for Bcl-xL” value in the assay with Bcl-xL [2] is approximately 1000 fold. For the same substance, the “Binding to Bcl-xL in words” value in the assay with Bcl-xL [1] is reported as “only background fluorescence”. For the substance “mut7: Bak(72–87) library variant: position 74 L, 78 L, 81 L, 85 F (GQLGRQLAILGDDFNR-eCPX)”, the “Binding to Bcl-xL in words” value with Bcl-xL [1] is “highest fluorescence”.

As to “mut8: Bak(72–87) library variant: position 74 L, 78 L, 81 F, 85 F (GQLGRQLAIFGDDFNR-eCPX)”, the “Binding to Bcl-xL in words” value in the assay with Bcl-xL [1] is listed as “highest fluorescence”.
